Laboratory results as given in article PMC6224509 (Nature Communications, 2018).

How the values were obtained:
[1] = target: T1, human 4-1BB residues 24–186, wild type, His–Avi (human, UniProt Q07011); assay: cell-based or functional assay
[2] = target: T1, human 4-1BB residues 24–186, wild type, …; assay: SPR; binding kinetics and affinities, monovalent binding of utomilumab and urelumab to wild type and mutant h4-1BB (Supplementary Figure 8); who was immobilised is not given in the source; details: both partners purified
[3] = target: T2, human 4-1BB residues 24–186 I132R, His–Avi (Homo sapiens, UniProt Q07011, I132R); assay: as above; details: both partners purified
T2 construct: human 4-1BB (CD137, TNFRSF9), residues 24-186, I132R; source: HEK cells, transfected, secreted, purified (NiExcel, Superdex 200); not shown: His8, C-terminal, kept

[4] = target: T3, human 4-1BB residues 24–186 M101R, His–Avi (Homo sapiens, UniProt Q07011, M101R); assay: as above; details: both partners purified
T3 construct: human 4-1BB (CD137, TNFRSF9), residues 24-186, M101R; source: HEK cells, transfected, secreted, purified (NiExcel, Superdex 200); not shown: His8, C-terminal, kept
T3 sequence (Q07011 24-186 M101R): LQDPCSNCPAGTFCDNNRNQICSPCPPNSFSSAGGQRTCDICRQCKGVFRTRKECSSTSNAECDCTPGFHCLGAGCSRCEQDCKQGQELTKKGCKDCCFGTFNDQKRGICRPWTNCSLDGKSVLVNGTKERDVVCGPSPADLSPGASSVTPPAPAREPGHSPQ

T1 sequence (Q07011 24-186): as the sequence (Q07011 24-186 M101R) above, with R78M counted along it
T2 sequence (Q07011 24-186 I132R): as the sequence (Q07011 24-186 M101R) above, with R78M, I109R counted along it

| NF-ĸB luciferase reporter in h4-1BB-expressing HEK293 cells, fold induction over unstimulated cells, cross-linked by Pfeiffer cells (FcγRIIB), max 250 nM [1] [fold] | NF-ĸB luciferase reporter in h4-1BB-expressing HEK293 cells, fold induction over unstimulated cells, no cross-linking, max 250 nM [1] [fold] | Kd [2] [nM] | Kd [3] [nM] | Kd [4] [nM] | Binder |
| --- | --- | --- | --- | --- | --- |
| 2.24 | 1.99 |  |  |  | urelumab (fully human IgG4 mAb) (antibody, V domains shown) VH: QVQLQQWGAGLLKPSETLSLTCAVYGGSFSGYYWSWIRQSPEKGLEWIGEINHGGYVTYNPSLESRVTISVDTSKNQFSLKLSSVTAADTAVYYCARDYGPGNYDWYFDLWGRGTLVTVSS VL: EIVLTQSPATLSLSPGERATLSCRASQSVSSYLAWYQQKPGQAPRLLIYDASNRATGIPARFSGSGSGTDFTLTISSLEPEDFAVYYCQQRSNWPPALTFGGGTKVEIK |
|  |  | 22 | 18 | 16 | urelumab Fab (Fab, V domains shown, urelumab heavy chain Fab region; urelumab kappa light chain (captured on an anti-human kappa surface); also called BMS-663513 (Fab); URE-Fab) VH: QVQLQQWGAGLLKPSETLSLTCAVYGGSFSGYYWSWIRQSPEKGLEWIGEINHGGYVTYNPSLESRVTISVDTSKNQFSLKLSSVTAADTAVYYCARDYGPGNYDWYFDLWGRGTLVTVSS VL: EIVLTQSPATLSLSPGERATLSCRASQSVSSYLAWYQQKPGQAPRLLIYDASNRATGIPARFSGSGSGTDFTLTISSLEPEDFAVYYCQQRSNWPPALTFGGGTKVEIK |
